In PMC12416549 (2024):
Positions count from the first letter of the chain named. Names may count otherwise.

B1: K71A (designed binder)
chain: SMEEEVEKAAKEYEKKKKEAIEKHLEKLKAKDKEAAERFLKELEEAAKEYAKDEAKTMSEEEAKRRAKKYAEKVLLSELSEEEQKEIKEAEEKLVRTILKYVEEAAK
B2: L25Q (designed binder)
chain: B1 chain with L25Q, A71K
B3: A47F (designed binder)
chain: B1 chain with A47F, A71K
B4: K56I (designed binder)
chain: B1 chain with K56I, A71K
B5: A55R (designed binder)
chain: B1 chain with A55R, A71K
B6: T57H (designed binder)
chain: B1 chain with T57H, A71K
B7: Q84I (designed binder)
chain: B1 chain with A71K, Q84I
B8: L79Q (designed binder)
chain: B1 chain with A71K, L79Q
B9: L40W (designed binder)
chain: B1 chain with L40W, A71K
B10: L94Y (designed binder)
chain: B1 chain with A71K, L94Y
B11: E92V (designed binder)
chain: B1 chain with A71K, E92V
B12: Y13K (designed binder)
chain: B1 chain with Y13K, A71K
B13: E12F (designed binder)
chain: B1 chain with E12F, A71K
B14: R96W (designed binder)
chain: B1 chain with A71K, R96W
B15: E19A (designed binder)
chain: B1 chain with E19A, A71K
B16: F39P (designed binder)
chain: B1 chain with F39P, A71K
B17: L79T (designed binder)
chain: B1 chain with A71K, L79T
B18: E83D (designed binder)
chain: B1 chain with A71K, E83D
B19: E37W (designed binder)
chain: B1 chain with E37W, A71K
B20: E12L (designed binder)
chain: B1 chain with E12L, A71K
B21: A106C (designed binder)
chain: B1 chain with A71K, A106C
B22: A20Y (designed binder)
chain: B1 chain with A20Y, A71K
B23: E44M (designed binder)
chain: B1 chain with E44M, A71K
B24: A55H (designed binder)
chain: B1 chain with A55H, A71K
B25: L76C (designed binder)
chain: B1 chain with A71K, L76C
B26: R96L (designed binder)
chain: B1 chain with A71K, R96L
B27: E45K (designed binder)
chain: B1 chain with E45K, A71K
B28: Y13R (designed binder)
chain: B1 chain with Y13R, A71K
B29: K31D (designed binder)
chain: B1 chain with K31D, A71K
B30: T97I (designed binder)
chain: B1 chain with A71K, T97I
B31: A46H (designed binder)
chain: B1 chain with A46H, A71K
B32: E26M (designed binder)
chain: B1 chain with E26M, A71K
B33: K93V (designed binder)
chain: B1 chain with A71K, K93V
B34: K85C (designed binder)
chain: B1 chain with A71K, K85C
B35: A35I (designed binder)
chain: B1 chain with A35I, A71K
B36: S77M (designed binder)
chain: B1 chain with A71K, S77M
B37: K64V (designed binder)
chain: B1 chain with K64V, A71K
B38: R66N (designed binder)
chain: B1 chain with R66N, A71K
B39: V6R (designed binder)
chain: B1 chain with V6R, A71K
B40: E26W (designed binder)
chain: B1 chain with E26W, A71K
B41: F39Y (designed binder)
chain: B1 chain with F39Y, A71K
B42: E104F (designed binder)
chain: B1 chain with A71K, E104F
B43: K8G (designed binder)
chain: B1 chain with K8G, A71K
B44: K33W (designed binder)
chain: B1 chain with K33W, A71K
B45: K71V (designed binder)
chain: B1 chain with A71V
B46: I87H (designed binder)
chain: B1 chain with A71K, I87H
B47: E61D (designed binder)
chain: B1 chain with E61D, A71K
B48: F39R (designed binder)
chain: B1 chain with F39R, A71K
B49: K41Y (designed binder)
chain: B1 chain with K41Y, A71K
B50: E91N (designed binder)
chain: B1 chain with A71K, E91N
B51: E104N (designed binder)
chain: B1 chain with A71K, E104N
B52: K27Y (designed binder)
chain: B1 chain with K27Y, A71K
B53: E19G (designed binder)
chain: B1 chain with E19G, A71K
B54: E78Y (designed binder)
chain: B1 chain with A71K, E78Y
B55: K11L (designed binder)
chain: B1 chain with K11L, A71K
B56: D53E (designed binder)
chain: B1 chain with D53E, A71K
B57: K23W (designed binder)
chain: B1 chain with K23W, A71K
B58: L75G (designed binder)
chain: B1 chain with A71K, L75G
B59: S59P (designed binder)
chain: B1 chain with S59P, A71K

Target: T1, TNFR1 (Homo sapiens, UniProt P19438)
T1 chain: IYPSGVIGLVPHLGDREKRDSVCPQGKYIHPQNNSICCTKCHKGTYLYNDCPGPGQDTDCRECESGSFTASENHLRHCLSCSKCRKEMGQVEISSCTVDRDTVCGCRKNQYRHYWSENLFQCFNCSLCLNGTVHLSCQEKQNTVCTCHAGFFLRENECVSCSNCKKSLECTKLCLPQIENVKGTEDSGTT
Assay: yeast display SC50

Binder	apparent Kd (screen)
B1	0.446 nM
B2	1.54 nM
B3	0.593 nM
B4	2.73 nM
B5	1.05 nM
B6	0.277 nM
B7	2.73 nM
B8	2.48 nM
B9	0.49 nM
B10	0.446 nM
B11	12.5 nM
B12	7.07 nM
B13	0.539 nM
B14	2.05 nM
B15	0.869 nM
B16	4.83 nM
B17	1.86 nM
B18	1.16 nM
B19	0.49 nM
B20	0.49 nM

Binder	apparent Kd (screen)
B21	3 nM
B22	0.446 nM
B23	0.956 nM
B24	12.5 nM
B25	3 nM
B26	0.718 nM
B27	12.5 nM
B28	12.5 nM
B29	0.956 nM
B30	2.05 nM
B31	1.16 nM
B32	0.539 nM
B33	1.16 nM
B34	0.539 nM
B35	0.539 nM
B36	1.4 nM
B37	0.653 nM
B38	16.7 nM
B39	0.653 nM
B40	1.05 nM

Binder	apparent Kd (screen)
B41	1.4 nM
B42	0.593 nM
B43	0.593 nM
B44	0.869 nM
B45	0.446 nM
B46	2.25 nM
B47	1.05 nM
B48	5.84 nM
B49	0.446 nM
B50	0.653 nM
B51	0.718 nM
B52	0.593 nM
B53	0.49 nM
B54	0.446 nM
B55	0.49 nM
B56	0.718 nM
B57	0.956 nM
B58	0.368 nM
B59	0.446 nM
